# Changes are numbered by the printed parent chain.
# T1: mouse CD27 (mouse, UniProt P41272 24-182, limits assumed)
# T1 construct: The construct is not described; also called murine CD27
# T1 sequence (looked up): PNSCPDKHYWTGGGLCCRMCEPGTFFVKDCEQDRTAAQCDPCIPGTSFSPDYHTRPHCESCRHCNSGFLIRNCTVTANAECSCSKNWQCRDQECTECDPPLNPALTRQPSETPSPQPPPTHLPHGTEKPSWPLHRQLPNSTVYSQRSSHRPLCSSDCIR
# B1: TP25 (antibody, V domains shown)
# VH: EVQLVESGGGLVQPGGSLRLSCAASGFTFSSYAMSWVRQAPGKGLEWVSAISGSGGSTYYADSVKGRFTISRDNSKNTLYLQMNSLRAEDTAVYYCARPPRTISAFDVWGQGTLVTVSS
# VL: QSVVTQPPSVSGAPGQRVTISCTGSSSNIGAGYDVHWYQQLPGTAPKLLIYGNSNRPSGVPDRFSGSKSGTSASLAITGLQAEDEADYYCQSYDSSLSGYVFGTGTKVTVL
# B2: TP6 (antibody, V domains shown)
# VH: QVQLVESGGGVVQPGRSLRLSCAASGFTFSSYAMHWVRQAPGKGLEWVAVISYDGSNKYYADSVKGRFTISRDNSKNTLYLQMNSLRAEDTAVYYCARGYQGGYSNFDLWGQGTLVTVSS
# VL: DIQMTQSPSTLSASVGDRVTITCRASQSISSWLAWYQQKPGKAPKLLIYDASSLESGVPSRFSGSGSGTDFTLTISSLQPEDFATYYCQQSYSTPYTFGQGTKLEIK
# notes: also called TP06
# B3: TP10 (antibody, V domains shown)
# VH: QVQLVESGGGVVQPGRSLRLSCAASGFTFSSYAMHWVRQAPGKGLEWVAVISYDGSNKYYADSVKGRFTISRDNSKNTLYLQMNSLRAEDTAVYYCARSGRATSYSYYGMDVWGQGTLVTVSS
# VL: not shown
# B4: TP23 (antibody, V domains shown)
# VH: QVQLVQSGAEVKKPGASVKVSCKASGYTFTSYGISWVRQAPGQGLEWMGWISAYNGNTNYAQKLQGRVTMTTDTSTSTAYMELRSLRSDDTAVYYCARGGAGHYDYFDYWGQGTLVTVSS
# VL: B1 VL
# B5: TP29 (antibody, V domains shown)
# VH: EVQLVESGGGVVQPGRSLRLSCAASGFTFSNAWMSWVRQAPGKGLEWVSAISGSGGSTYYADSVKGRFTISRDNSKNTLYLQMNSLRAEDTAVYYCARRALSLSYFDYWGQGTLVTVSS
# VL: B1 VL
# B6: TP11 (antibody, V domains shown)
# VH: QVQLVESGGGVVQPGRSLRLSCAASGFTFSSYAMHWVRQAPGKGLEWVAVISYDGSNKYYADSVKGRFTISRDNSKNTLYLQMNSLRAEDTAVYYCARGVSGSYARGFDVWGQGTLVTVSS
# VL: B2 VL with D70E, Y96W, L104V
# B7: TP31 (antibody, V domains shown)
# VH: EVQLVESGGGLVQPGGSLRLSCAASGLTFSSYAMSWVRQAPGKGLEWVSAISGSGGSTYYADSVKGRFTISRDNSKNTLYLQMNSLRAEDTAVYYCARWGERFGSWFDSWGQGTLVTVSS
# VL: B1 VL
# B8: TP15 (antibody, V domains shown)
# VH: B4 VH with T74E, R84S, D89E
# VL: QSVLTQPPSVSAAPGQKVTISCSGSSSNIGNNYVSWYQQLPGTAPKLLIYDNNKRPSGIPDRFSGSNSGNTATLTISGTQAMDEADYYCQAWDSSTAWVFGGGTKLTVL
# notes: Clone of the screen
# B9: TP21 (antibody, V domains shown)
# VH: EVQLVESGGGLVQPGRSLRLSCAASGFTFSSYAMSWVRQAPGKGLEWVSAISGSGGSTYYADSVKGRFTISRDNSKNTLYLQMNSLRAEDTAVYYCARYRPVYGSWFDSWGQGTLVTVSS
# VL: B1 VL
# notes: Clone of the screen
# B10: TP22 (antibody, V domains shown)
# VH: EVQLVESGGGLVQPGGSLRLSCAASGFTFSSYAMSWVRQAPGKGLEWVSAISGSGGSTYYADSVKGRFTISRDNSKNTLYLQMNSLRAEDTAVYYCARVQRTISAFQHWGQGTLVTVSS
# VL: B1 VL
# notes: Clone of the screen
# B11: TP28 (antibody, V domains shown)
# VH: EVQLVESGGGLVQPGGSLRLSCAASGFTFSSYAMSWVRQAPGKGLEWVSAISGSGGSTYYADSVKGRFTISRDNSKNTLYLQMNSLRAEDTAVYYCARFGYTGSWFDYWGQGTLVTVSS
# VL: B1 VL with N53K
# notes: Clone of the screen
# B12: TP17 (antibody, V domains shown)
# VH: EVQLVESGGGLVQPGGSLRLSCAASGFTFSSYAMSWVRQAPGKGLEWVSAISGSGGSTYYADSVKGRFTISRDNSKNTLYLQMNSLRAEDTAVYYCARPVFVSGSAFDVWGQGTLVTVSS
# VL: B1 VL
# notes: Clone of the screen
# B13: TP1 (antibody, V domains shown)
# VH: QVQLVESGGGVVQPGRSLRLSCAASGFTFSSYAMHWVRQAPGKGLEWVAVISYDGSNKYYADSVKGRFTISRDNSKNTLYLQMNSLRAEDTAVYYCARAGSSGYAYYGMDVWGQGTLVTVSS
# VL: not shown
# notes: Clone of the screen; also called TP01
# B14: TP24 (antibody, V domains shown)
# VH: QVQLVESGGGVVQPGRSLRLSCAASGFTFSSYAMHWVRQAPGKGLEWVAVISYDGSNKYYADSVKGRFTISRDNSKNTLYLQMNSLRAEDTAVYYCARPVRTISAFDVWGQGTLVTVSS
# VL: QSVVTQPPSVSGAPGQRVTISCTGSSSNIGAGYDVHWYQQLPGTAPKLLIYGNSNRPSGVPDRFSGSKSGTSASLAITGLQAEDEADYYCGTWDSSLSAGYVFGTGTKVTVL
# notes: Clone of the screen
# B15: TP5 (antibody, V domains shown)
# VH: B14 VH with P99V, V100F, R101Y, T102G, I103Y, S104A, A105P
# VL: B2 VL with D70E, E81D
# notes: Clone of the screen; also called TP05
# B16: TP9 (antibody, V domains shown)
# VH: B2 VH with G99A, Y100V, Q101P, G102Y, G103V, S105Y, N106G, F107M, L109V
# VL: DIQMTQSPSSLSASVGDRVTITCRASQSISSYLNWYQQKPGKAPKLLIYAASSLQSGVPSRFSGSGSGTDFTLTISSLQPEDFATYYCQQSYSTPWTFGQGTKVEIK
# notes: Clone of the screen; also called TP09
# B17: TP14 (antibody, V domains shown)
# VH: QVQLVQSGAEVKKPGASVKVSCKASGYTFTSYYMHWVRQAPGQGLEWMGIINPSGGSTSYAQKFQGRVTMTRDTSTSTVYMELSSLRSEDTAVYYCARYDHAGGTPFDLWGQGTLVTVSS
# VL: QSVLTQPPSVSAAPGQKVTISCSGSSSNIGNNYVSWYQQLPGTAPKLLIYGNSNRPSGVPDRFSGSKSGTSASLAITGLQAEDEADYYCQSYDSSLSGYVFGTGTKVTVL
# notes: Clone of the screen
# Biological target: T2, human CD27 (human, UniProt P26842 21-192, limits assumed)
# T2 construct: The construct (soluble form, tags) is not described; also called TNFRSF7
# T2 sequence (P26842 21-192 limits assumed): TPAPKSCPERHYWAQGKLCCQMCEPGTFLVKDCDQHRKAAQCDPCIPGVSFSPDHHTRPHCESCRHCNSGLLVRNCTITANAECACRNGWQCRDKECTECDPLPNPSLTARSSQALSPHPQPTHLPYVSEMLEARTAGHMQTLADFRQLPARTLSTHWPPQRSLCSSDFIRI
# Test: mAb titration on human CD27, OD readout
row,EC50 (read off the curve) [nM],Binder
1,~0.1,B1
2,~0.3,B2

# Biological target: T1, mouse CD27
# Test: Kd table for the mAb titration on mouse CD27 (OD readout, Figure 4 B); method not given
row,Kd [nM],Binder
1,0.9,B3
2,40,B4
3,0.7,B5
4,8,B2
5,0.5,B6

# Biological target: T2, human CD27
# Test: Kd table for the mAb titration on human CD27 (OD readout, Figure 4 A); method not given
row,Kd [nM],Binder
1,0.4,B3
2,5,B4
3,0.1,B1
4,1.4,B7
5,0.3,B5
6,0.6,B2
7,0.2,B6

# Biological target: T2, human CD27
# Test: screen of individual clones, heat map of log (Binding MFI), human CD27 at 25 nM
row,binding result,Binder
1,binds,B8
2,binds,B9
3,binds,B10
4,binds,B11
5,binds,B12
6,binds,B13
7,binds,B14
8,binds,B15
9,binds,B16
10,binds,B17

# Biological target: T1, mouse CD27
# Test: screen of individual clones, heat map of log (Binding MFI), mouse CD27 at 25 nM
row,binding result,Binder
1,binds,B10
